B1: wild-type human MLKL (residues 2–471), recombinant (natural protein, UniProt Q8NB16 2-471, looked up)
chain: ENLKHIITLGQVIHKRCEEMKYCKKQCRRLGHRVLGLIKPLEMLQDQGKRSVPSEKLTTAMNRFKAALEEANGEIEKFSNRSNICRFLTASQDKILFKDVNRKLSDVWKELSLLLQVEQRMPVSPISQGASWAQEDQQDADEDRRAFQMLRRDNEKIEASLRRLEINMKEIKETLRQYLPPKCMQEIPQEQIKEIKKEQLSGSPWILLRENEVSTLYKGEYHRAPVAIKVFKKLQAGSIAIVRQTFNKEIKTMKKFESPNILRIFGICIDETVTPPQFSIVMEYCELGTLRELLDREKDLTLGKRMVLVLGAARGLYRLHHSEAPELHGKIRSSNFLVTQGYQVKLAGFELRKTQTSMSLGTTREKTDRVKSTAYLSPQELEDVFYQYDVKSEIYSFGIVLWEIATGDIPFQGCNSEKIRKLVAVKRQQEPLGEDCPSELREIIDECRAHDPSVRPSVDEILKKLSTFSK
notes: human MLKL, residues 2–471; Elutes as oligomer (tetramer) and monomer peaks; the peaks were pooled except where indicated; Native MS used the oligomer SEC fraction; also called hMLKL; wild-type hMLKL; source: Sf21 insect cells (baculovirus), purified (glutathione agarose, TEV cleavage, Superdex S200); not shown: GST, N-terminal, cleaved

Key:
[1] = molecular target: the molecule itself; test: native MS; 250 mM ammonium acetate, nano electrospray; wild type: the oligomer SEC fraction; self-association
[2] = molecular target: the molecule itself; test: AUC; sedimentation velocity, 0.25, 0.5 or 1 mg/mL hMLKL, 20 mM HEPES pH 7.5, 200 mM NaCl, 50,000 rpm, 20 °C; at 1 mg/mL also with 300 μM ATP; self-association (tetramer and monomer)
[3] = molecular target: B1; test: SPR; SBP-hRIPK3 (2–356) immobilised on a streptavidin chip (Biacore SA); hMLKL flowed over at 1, 0.5, 0.25, 0.125, 0.0625 and 0 μM, 30 μL/min; 20 mM HEPES pH 8.0, 200 mM NaCl; 25 °C; settings: both partners purified

With B1 the “stoichiometry N” value [1] was 4.

B2: K331N human MLKL (residues 2–471), recombinant (natural protein, UniProt Q8NB16 2-471, looked up)
chain: ENLKHIITLGQVIHKRCEEMKYCKKQCRRLGHRVLGLIKPLEMLQDQGKRSVPSEKLTTAMNRFKAALEEANGEIEKFSNRSNICRFLTASQDKILFKDVNRKLSDVWKELSLLLQVEQRMPVSPISQGASWAQEDQQDADEDRRAFQMLRRDNEKIEASLRRLEINMKEIKETLRQYLPPKCMQEIPQEQIKEIKKEQLSGSPWILLRENEVSTLYKGEYHRAPVAIKVFKKLQAGSIAIVRQTFNKEIKTMKKFESPNILRIFGICIDETVTPPQFSIVMEYCELGTLRELLDREKDLTLGKRMVLVLGAARGLYRLHHSEAPELHGNIRSSNFLVTQGYQVKLAGFELRKTQTSMSLGTTREKTDRVKSTAYLSPQELEDVFYQYDVKSEIYSFGIVLWEIATGDIPFQGCNSEKIRKLVAVKRQQEPLGEDCPSELREIIDECRAHDPSVRPSVDEILKKLSTFSK
notes: human MLKL, residues 2–471, with K331N in the pseudocatalytic loop; also called K331N hMLKL; K331N hMLKL(2–471); source: Sf21 insect cells (baculovirus), purified (glutathione agarose, TEV cleavage, Superdex S200); not shown: GST, N-terminal, cleaved
With B2 the “stoichiometry N” value [2] was 4.

B3: Streptavidin-binding peptide (SBP)-tagged human RIPK3 kinase domain (residues 2–356) (domain or fragment, UniProt Q9Y572 2-356, looked up)
chain: SCVKLWPSGAPAPLVSIEELENQELVGKGGFGTVFRAQHRKWGYDVAVKIVNSKAISREVKAMASLDNEFVLRLEGVIEKVNWDQDPKPALVTKFMENGSLSGLLQSQCPRPWPLLCRLLKEVVLGMFYLHDQNPVLLHRDLKPSNVLLDPELHVKLADFGLSTFQGGSQSGTGSGEPGGTLGYLAPELFVNVNRKASTASDVYSFGILMWAVLAGREVELPTEPSLVYEAVCNRQNRPSLAELPQAGPETPGLEGLKELMQLCWSSEPKDRPSFQECLPKTDEVFQMVENNMNAAVSTVKDFLSQLRSSNRRFSIPESGQGGTEMDGFRRTIENQHSRNDVMVSEWLNKLNLEE
notes: human RIPK3 kinase domain, residues 2–356; The His6 fusion is TEV protease-cleavable; also called SBP-hRIPK3; hRIPK3 kinase domain; source: Sf21 insect cells (bacmid from pFastBac Htb); not shown: SBP, N-terminal, kept
B3: binds [3].
